The data set can be described thus: yeast display, Sf9 membrane polyspecificity reagent, FACS + sequencing; frameworks hold sequencing errors. Put shortly:
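Polyreactivity labels are assigned by the sorting gate from which each nanobody was recovered. The gates were low and high (top ~1%), set on anti-HA fluorescence for expression and streptavidin fluorescence for reagent binding. Before sorting, galactose-induced (36–48 hours) yeast display cells were stained for 1 hour at 4 °C with 10% biotinylated, detergent-solubilized Sf9 membrane reagent.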
For the sequence “QVQLVESGGGLVQAGGSLRLSCAASGIIFYHYAMGWYRPAPGKEREFVAAITWDGGNTSYADSVKGRFTISRDYAKNTFYLQMNSLIPEDTAVYYCNTDRGPVKVSPLYESWGQGTQVTVSS”, the “polyreactivity (PSR sort gate)” value was “low polyreactivity”.

With “QVHLVESAGCLVQAGGSLRLSCAASGSIIYLYAMGWYRQAPGKERELVAAISSGGSTNYADSVKGRFTISRDNAKNSVYLQMNSLKPEDTAVYYCAATLPGWYNEYDSWGQGTQVTVSS”, the “polyreactivity (PSR sort gate)” value is listed as “low polyreactivity”.

As for “QVQLVESGGGLVQAGGSLRLSCAASGSSVYSYAMGWYRQAPGKERELVAAISWRGGSTYYADSVKGRFTISRDNAKNTVYLQMNSLKPEDTAVYYCAAYYYTGPTTVESDYWGQGTQVTVSS”, the “polyreactivity (PSR sort gate)” value is reported as “high polyreactivity”.

Consider “QVQLVESGGGLVQAGGSLRLSCAASGIIFRPYAMGWYRQAPGKERELVAAITWSVTSTYYADSVKGRFTISRDNAKNTVYLQMNSLKPEDTAVYYCAATCSYGVSWYEYWGQGTQVTVSS”, for which the “polyreactivity (PSR sort gate)” value is reported as “high polyreactivity”.

Regarding “QVQLVESGGGLVQAGGSLRLSCAASGSTFPRYAMGWYRQAPGKERELVAAISKSGTITSYADSVKGRFTISRDNAKNTVYLQMNSLKPEDTAVYYCAKGRYWPYDYWGQGTQVTVSS”, the “polyreactivity (PSR sort gate)” value is “high polyreactivity”.

In the case of “QVQLVESGGGLVQAGGSLRLSCAASGSSFYYYAMGWYRQAPGKERELVAAITSGDTTNYADSVKGRFTISRDNAKNTVYLQMNSLIPEDTAVYYCAVDLNTTAFYPEAATYLDEYWGQGTQVTVSS”, the “polyreactivity (PSR sort gate)” value is on record as “low polyreactivity”.

For the sequence “QVQLVESGGGLVQAGGSLRLSCAASGSIFEWYAMGWYRQAPGKERELVADISSLGSTYYADSVKGRFTISRDNAKNTVYLQMNSLKPEDTAVYYCNTSYIIWYDSWGQGTQVTVSS”, the “polyreactivity (PSR sort gate)” value was “low polyreactivity”.

As to “QVQLVESGGGLVQAGGSLRLSCAASGSIFYLNAMGWYRMAPGKERELVATISNGGSTNYADSVKGRFTISRDNAKNTVYLQMNSLKPEDTAVYYCAAASGGTVVGEGDYWGQGTQVTVSS”, the “polyreactivity (PSR sort gate)” value is listed as “low polyreactivity”.

In the case of “QVQLVESGGGLVQAGGTLRLSCAASGSTFGVYAMGWYRQAPGKERELVAAIDNSGDDTYYADSVKGRFTISRDNAKNTVYLQMNSLKPEDTAVYYCAADFWDGRSTLNFWGQGTQVTVSS”, the “polyreactivity (PSR sort gate)” value is on record as “high polyreactivity”.

As to “QVQLVESGGGLVQAGGSLRLSCAASGSIFRGNAMGWYRQAPGKERELVAVITWSGGSTYYADSVKGRFTISRDNAKNTVYLQMNSLKPEDTAVYYCNAARKQRVYFAGDYWGQGTQVTVSS”, the “polyreactivity (PSR sort gate)” value was “high polyreactivity”.

As to “QVQIVESGGGLVQAGGSLRLTCAASGYIFKYYAMGWYRQAPGKERELVAAITIGGNTNYADSVKGRFTISRDNAKNTVYLQMNSLKPEDTAVYYCATGGYYSAIVYGGYDYWGQGTQVTVSS”, the “polyreactivity (PSR sort gate)” value is reported as “low polyreactivity”.

Take “QVQIVESGGGLVQAGGSLRLSCAAYGRIFVPYAMGWYRPAPGKERELVAAITWRGGSTYYAYSVKGRFTISRDNAKNTVYLQMNSMNPDDTGVYYCNSDEASAGFWFSHLQLGMDYWGQGTQVTVSS”: the “polyreactivity (PSR sort gate)” value was “low polyreactivity”.

For “QVQLVESGGGLVQAGGSLRLSCAASGSTFTSNAMGWYRQAPGKERELVAAISFSDASTYYADSVKGRFTISRDNAKKTVYLQMNRLKPEDTAVYYCNADYPTTAYDYCGQGTQVTVSS”, the “polyreactivity (PSR sort gate)” value was “low polyreactivity”.

With “QVQLVESGGGLVQAGGSLRLSCAASGSTYYTNAMGWYRQAPGKERELVATITSSGGITSYADSVKGRFTISRDNAKNTVYLQMNSVKPEDTAVYYCAADFGSSYDTHEYGYWGQGTQVTVSS”, the “polyreactivity (PSR sort gate)” value was “low polyreactivity”.

With “QVQLVESGGGLVQAGGSLRLSCAASGRTFTGYAMGWYRQAPGKERELVASISSRGGSTYYADSVKGRFTISRDNAKNTVYLQMNSLKPEDTAVYYCAADSVRHTYSWWYAVDYWGQGTQVTVSS”, the “polyreactivity (PSR sort gate)” value is given as “high polyreactivity”.

On to “QVQLVESGGGLVQAGGSLRLSCAASGSIFSENTMGWYRQAPGTKREWVADITSGGSTNYADSVKGRFTISRDNAKNTVYLQMNSLKPEDTAVYYCAVPGRLYAHPQGYDYWGQGTQVTVSS”, for which the “polyreactivity (PSR sort gate)” value was “low polyreactivity”.

Turning to “QVQLVESGGGLVQAGGSLRLSCAASGSTFVNAMGWYRQAPGKERELVAAISLSGDSTYYADSVKGRFTISRDNAKNTVYLQMNCLKPEDTAVYYCNADGLGGEDPEYLWYPVPDYDYWGQGTQVTVSS”, the “polyreactivity (PSR sort gate)” value was “low polyreactivity”.

Regarding “QVQLVESGGGLVQAGGSLGLSCAASGLIFQAYAMGWYRQAPGKERELVAAINWSGDSTYYADSVKGRFTISRDNAKYTVYLQMNSLKPEDTAVYYCAARYRRAKYGYWGQGTQVTVSS”, the “polyreactivity (PSR sort gate)” value is “high polyreactivity”.

Turning to “QVQLVESGGGLVQAGGSLRLSCAASGRIFWYYAMGWYRQAPGKERELVAAISWSGGTTYYADSVKGRFTISRDNAKNTVYLQMNSLKPEDTAVYYCAAVFQYGYGEDYWGQGTQVTVSS”, the “polyreactivity (PSR sort gate)” value is reported as “high polyreactivity”.

For the sequence “QVQLVESGGGLVQAGGSLRLSCAASGRIFRYYAMGWYRQAPGKERELVAAINSGGSTKYADSVKGRFTISRDNAKNTVYLQMNSLKPEDTAVYYCAAVYTPDSRYDYWGQGTQVTVSS”, the “polyreactivity (PSR sort gate)” value was “high polyreactivity”.

Take “QVQLVESGGGLVQAGGSLRLSCAASGITFPGNAMGWYRQAPGKERELVAVISSGTSTNYADSVKGRFTISRDNAKYTVYLQMNSLKPEDTAVYYCATSLYYYPYYYWGQGTQVTVSS”: the “polyreactivity (PSR sort gate)” value is recorded as “low polyreactivity”.

Turning to “QVQLVESGGGLVQAGGSLRLSCAASGFIFSYYAMGWYRQAPVKERELVAAISSSGGTTYADSVKGRFTISRDNAKNTFYLQMNSLKPEDTAVYYCARVQYWFYKPMYYWGQGTQVTVSS”, the “polyreactivity (PSR sort gate)” value is listed as “high polyreactivity”.

As for “QLQLVESGGGLVQAGGSLRLSCAASGSIYYEKVMGWYRQAPGKERELVAGISRSGGRTYYADSVKGRFTISRDNAKNTVYLQMNSLKPEDTAVYYCAALTPRNRYRKFDYWGQGTQVTVSS”, the “polyreactivity (PSR sort gate)” value is on record as “high polyreactivity”.

Regarding “QVQLVESGGGLVQAGGSLRLSCAASGRTIRWYAMGWYRQAPGKERELVAAITWIGGSTYYADSVKGRFTISRDNAKNTVYLQMNSLQPEDTAVYYCATDKDDVSDLGKDYAYFEYDYWGQGTQVTVSS”, the “polyreactivity (PSR sort gate)” value is reported as “low polyreactivity”.

With “QVQLVESGGGLVQAGGSLRLSCAASGRTFKYNAMGWYRQAPGKEREFVAAISSRGGSTYYADSVKGRFTISRDNAKNTVYLQMNSLKPEDTAVYYCNKLYGTRWSGLADDYWGQGTQVTVSS”, the “polyreactivity (PSR sort gate)” value is given as “high polyreactivity”.

With “QVQLVESGGGLVQAGGSLRLSCAASGIIFGRYAMGWYRHAPGKERELVAAISTSGCSTYYADSVKGRFTISRDNAKTTVYLQMNSLKPEDTAVYYCAARHREAQRRYDYWGQGTQVTVSS”, the “polyreactivity (PSR sort gate)” value was “high polyreactivity”.

Take “QVQLVESGGGLVQAGGSLRLSCAASGRILLYNAMGWYRQAPGKERELVAAISRSGGSTYYADSVKGRFTISRDNAKNTVYLQMNSLKPEDTAVDYCAAQHGYTRYYYWGQGTQVTVSS”: the “polyreactivity (PSR sort gate)” value was “high polyreactivity”.

With “QVQLVESGGGLDQAGGSLRLSCAASGSIFEPNAMVWYRQAPGKERELVAAITGGGGTNYADSVKGRFTLSRDNAKYTVYLQMNSLKPEDTAVYYCAKEVDHGDASDMDYWGQGTQVTVSS”, the “polyreactivity (PSR sort gate)” value was “low polyreactivity”.

“QVQLVESGGGLVQAGGSLRLSCAASGFIFLGNAMGWYRQAPGKERELVASISRGGSTNYADSVKGRFTISRDNAKNTVYLQMTSLKPEDTAVYYCAADLSDKFGYWGQGTQVTVSS”: the “polyreactivity (PSR sort gate)” value is listed as “low polyreactivity”.

On to “QVQLVESAGGLVQAGGSLRLSCAASGRIFSIYAMGWSRQAPGKERELVAAIRRGGSTSYADSVKGRFTISRDNAKNTVYLQMNSLKPEDTAVYYCAARLRYLGYDFWGQGTQVTVSS”, for which the “polyreactivity (PSR sort gate)” value is given as “high polyreactivity”.

For “QVQLVESGGGLVQAGGSLRLSCAASGSIFKFNTMGWYRQAPGKERELVASITRVGSTYYADSVKGRFTISRDNAKNTVYLQMNSLKPEDTAVYYCAARFLYYTYKTFRTYDYWGQGTQVSVSS”, the “polyreactivity (PSR sort gate)” value is recorded as “high polyreactivity”.

As to “QVQQHESGGGLVQAGGSLRLTCAASGTISESGLMGWYRQAPGKERELVAGISSGGITNYADSVKGRFTISRDIAINTVYLQMNSPKPEDTAEYWGQGSQVTVSS”, the “polyreactivity (PSR sort gate)” value is “low polyreactivity”.

For the sequence “QVQLVESGGGLVQAGGSLRLSCAASGIIFRANAMGWYRQAPGKERELDAAISGRGSSTTYADSVKGRFTISRDNAKNTVYLQINSLKPEDTAVYYCAARLPYNNQVPGYYWGQGTQVTGSS”, the “polyreactivity (PSR sort gate)” value is recorded as “high polyreactivity”.

For “QVQLVESGGGLVQAGGSLRLSCAASGYTFDLYAMGWYRQAPGKERELVADISSGGSTNYADSVKGRFTISRDNAKNTVYLQMNSLKPEDTAVYYCAVDADRTLFGQYYVSEYGGGYWGQGTQVTVSS”, the “polyreactivity (PSR sort gate)” value was “low polyreactivity”.

Take “QVQLVESGGGLVQAGGSLRLSCAASGFIFYDYAMGWYRQAPGKERELVAAITVDGGTTYYADSVKGRFTISRDNAKNTVYLQMNSLKPEDTAVYYCAADTYYGFDSNYEYWGQGTQVTVSS”: the “polyreactivity (PSR sort gate)” value is “low polyreactivity”.

As for “QVQLVESGGGLVQAGGSLRLSCAASGSIFSTYTMGWYRQAPGKERELVATIRLRGGSTYYADSVKGRFTISRDNAKNTVYLQMNSLKPEDTAVYYCNKAYRYYQYGYWGQGTQVTVSS”, the “polyreactivity (PSR sort gate)” value was “high polyreactivity”.

Take “QVQLVESGGGLVQAGGSLRLSCAASGYTFRYYAMGWYRQAHGKERELVAAITSSTSSTYYADSVKGRFTISRDNAKNTVYLQMNSLKPEDTAVYYCNRVWSTSMDYWGEGTQVTVSS”: the “polyreactivity (PSR sort gate)” value is reported as “high polyreactivity”.

“QVQLVDSVGGLVQAGASLRLSCAASGSIFYYYAMGWYREAPGKERELVAAIRYRGGRTYYADSVKGRFTISRDNAKNTVYLQMNSLKPEDTAVYYCNADVIRRGGSRYSSGRDFDYWGQGTQVTVSS”: the “polyreactivity (PSR sort gate)” value was “high polyreactivity”.

In the case of “QVQLVESGGGLVQAGGSLRLSCAASGSTFYPNAMGWYRQAPGKERELVADISYSGGRTYYADSVKGRFTISRDNAKNTVYLQMNSLKPEYTAVYYCAARKVTYHYQWMDYWGQGTQVTVSS”, the “polyreactivity (PSR sort gate)” value is reported as “low polyreactivity”.

With “QVQLVESGGGLVQAGGSLRLNCAASGSIFDDYAMGWYRQAPGKERELVAAINIRTGSTYYADSVKGRFTISRDNAKNTVYLQMNSLKPEDTAVYYCNRVVRGFVRHLDYWGQGTQVTVSS”, the “polyreactivity (PSR sort gate)” value is listed as “low polyreactivity”.

With “QVQLVESGGGLVQAGGSLRLSCAASGRIFSMNAMGWYRQAPGKERELVAGIRKRGGSTYYADSVKGRFTISRDNAKNTVYLQMNSLKPEDTAVYFCAAQPALTYRFYYLGQGTQVTVSS”, the “polyreactivity (PSR sort gate)” value is given as “high polyreactivity”.
